According to patent US20150342943A1, “METHODS OF TREATING LIVER DISEASE” (Gilead Sciences, Inc., priority 2014, published 2015):

B1: AB0023: murine anti-LOXL2 antibody, heavy chain variable region SEQ ID NO: 15, light chain variable region SEQ ID NO: 16 (antibody, V domains shown)
VH: MEWSRVFIFLLSVTAGVHSQVQLQQSGAELVRPGTSVKVSCKASGYAFTYYLIEWVKQRPGQGLEWIGVINPGSGGTNYNEKFKGKATLTADKSSSTAYMQLSSLTSDDSAVYFCARNWMNFDYWGQGTTLTVSS
VL: MRCLAEFLGLLVLWIPGAIGDIVMTQAAPSVSVTPGESVSISCRSSKSLLHSNGNTYLYWFLQRPGQSPQFLIYRMSNLASGVPDRFSGSGSGTAFTLRISRVEAEDVGVYYCMQHLEYPYTFGGGTKLEIK
modifications: anti-LOXL2 antibody AB0023 heavy chain variable region; anti-LOXL2 antibody AB0023 light chain variable region

Key:
[1] = tested on: HSCs; experiment: Quantitative RT-PCR of TGF-β1-induced gene transcription in HSCs; assay type: cell-based, human; conditions: pre-treated HSCs, TGF-β1 5 ng/ml for 48 hrs
Experimental: For gene expression assays, RNA was isolated using commercially available kit (Qiagen Midikit), converted to cDNA (Retroscript Kit, Ambion) and tested for expression of genes involved in fibrosis with human probes on ABI 7300 (Applied Biosystems). All assays were performed in triplicate.
Quantitative RT-PCR was used to determine the effects of compounds to inhibit TGF-β1-induced gene transcription of αSMA, COL1α1, […], and lumican.

[2] = tested on: primary human HSCs; experiment: α-SMA Assay in TGF-β-stimulated hepatic stellate cells; assay type: cell-based; conditions: 24 h, read-out: α-SMA Assay EC50
Experimental: For quantification of α-SMA protein expression, HSC's were plated at a density of 10,000 cells/well in collagen coated 96-well plates (BD-Biosystems). […] HSCs were fixed in 4% PFA, permeabilized in 0.02% Triton-X-100, blocked for 30 min. and stained with an anti-α-SMA specific antibody (Sigma) and a flourescently labeled secondary antibody (Invitrogen). α-SMA expression was quantified on a fluorescent plate reader.

[3] = tested on: primary human HSCs; experiment: Collagen Assay (Sircol) in TGF-β-stimulated hepatic stellate cells; conditions: read-out: Collagen Assay EC50
Experimental: Collagen synthesis, α-SMA (smooth muscle actin) expression, and changes in transcript expression were measured in response to stimulation from ROS (reactive oxygen species) and TGF-β.
Commercially available primary human HSCs (Sciencell) were plated at a density of 250,000 cells/well on 12-well plates (Corning). HSCs were co-stimulated with 5 ng/mL TGF-β+/− ASK1 inhibitor compounds. Collagen production was assessed by Sircol Assay where extracellular collagen was digested with pepsin, followed by acid extraction, neutralization, and colometric quantification using the Sircol assay kit according to the manufacturer's protocols (BioColor).

[4] = tested on: male C57BL/6 mice; experiment: Interventional NASH model (treatment from day 240 of high fat, high cholesterol, high sugar diet); assay type: in vivo
Experimental: Liver homogenate (1.5 mL) was transferred to 1.5 mL Eppindorf tubes and centrifuged at 14,000 rpm for 10 min. Supernate was transferred to 96-deep well plate and diluted 1:1 with 4 M HCl. HYP levels were quantified using a commercially available hydroxyproline assay (Quickzyme Biosciences).
Commercially available high fat, high cholesterol, high sugar diet was administered continuously to 12 week old male C57BL/6 mice for 320 days. […] Animal cohorts (n=15) were sacrificed after 80 days of treatment. Collagen synthesis and hydroxyproline (HYP) were measured using D2O labeling. Second harmonic imaging was used to quantitate collagen morphometry.
Commercially available high fat, high cholesterol, high sugar diet was administered continuously to 12 week old male C57BL/6 mice for 320 days. […] At 80 days of treatment, collagen synthesis and HYP levels in each group (n=15) were determined using D2O labeling. […] Liver homogenate (1.5 mL) was centrifuged at 14,000×rpm for 10 min and the resulting supernate was d diluted 1:1 with 4 M HCl. HYP levels were quantified using a commercially available hydroxyproline assay (Quickzyme Biosciences).
In addition, immunohistochemistry and immunoblot analysis were used to characterize the levels of phospho-p38 (p-p38), phospho-JNK1 (p-JNK1), and phospho-MKK4 (p-MKK4) proteins.

[5] = tested on: TAA-induced liver fibrosis; experiment: TAA-induced liver fibrosis; conditions: in vivo
[6] = tested on: Mdr2^−/− BALB/c; experiment: Interventional PSC model; assay type: in vivo, mice
Experimental: Control groups received treatment with either vehicle or an unrelated isotype-matched control IgG (i.e. a murine IgG1). Portal venous pressure
(PVP) was measured invasively by direct cannulation of the portal vein with a micro-tip pressure monitor at the end of the study. Liver fibrosis was evaluated by histology, biochemical determination of collagen and analysis of profibrogenic gene expression by qRT-PCR.

Row | Molecule | TGF-β1-induced responses in RNA levels of αSMA, COL1α1, TIMP1, and lumican [1] | EC50 [2] [nM] | EC50 [3] [nM] | synthesis rates of extracellular matrix proteins (Col1a1, Col1a3, and Col1a5) ([4]; Example 3) | blood glucose and insulin levels ([4]; additional studies) | relative hydroxyproline levels ([4]; additional studies, FIG. 30) | TAA-induced fibrosis progression [5] | reduction of hepatic collagen deposition (hydroxyproline levels) ([6]; 6 weeks treatment, vs control group) [%] | portal venous pressure (PVP) ([6]; end of study, control 10.1±0.2) [mmHg] | fibrosis progression in Mdr2^−/− mice ([6]; mouse, in vivo)
1 | Cc1cc(F)c(C(=O)Nc2cccc(-c3nncn3C(C)C)n2)cc1-n1cnc(C2CC2)c1 [Compound 3] | blocked or inhibited | 18.9 | 11.6 |  |  |  |  |  |  | 
2 | B1 |  |  |  | affected | did not affect | did not result in a decrease | blocked | 38 | 8.36±0.23 | blocked
